Data on one molecule can be found in article PMC12311895, “Single-Molecule Protein Interactions and Unfolding Revealed by Plasmon-Enhanced Fluorescence” (Analytical Chemistry, 2025).

This assay concerns the target T1, MBP-PDZ protein (Erbin PDZ) with a single cysteine, conjugated to DNA (UniProt Q96RT1 1321-1410, ATTO 532 (labelled with ATTO 532-NHS); amine-modified DNA oligonucleotide coupled through sulfo-SMCC to the single cysteine between MBP and PDZ).
T1 construct: stretch between MBP and the PDZ domain that holds the single introduced cysteine; Erbin PDZ domain; Held on DNA-coated 40 by 80 nm gold nanorods by DNA hybridisation; About 50% of the protein in the conjugation mixture carried no DNA; also called Erbin PDZ protein; PDZ-DNA; not shown: MBP, N-terminal, kept
Put plainly: single-molecule plasmon-enhanced fluorescence microscopy (TIRF); MBP-PDZ held on gold nanorods (40 by 80 nm) by DNA hybridisation, particles immobilised on glass; ATTO 655-labeled peptide in solution; 637 nm laser; 20 ms exposure; koff from bright times (double exponential fit), kon from event frequency against proteins per particle. The conditions noted are these: both partners purified.

Where no end group is shown, it is not given here.

By Kd is commonly meant the concentration at which binding is half-saturated. As usually defined, the kon is the second-order rate constant of association. Consider CGAGRGSIDTWV (also: ATTO 655 label (site not given here)) [ATTO 655-labeled target peptide], for which the Kd lay in the range of 1 to 5.1 µM and the kon was 1.2e+07 M⁻¹ s⁻¹.
